# Measurements as given in IntAct's records for PubMed 20935634.
# B1: Tumor necrosis factor receptor superfamily member 6 (Homo sapiens), P25445-1 (parent)
# chain: MLGIWTLLPLVLTSVARLSSKSVNAQVTDINSKGLELRKTVTTVETQNLEGLHHDGQFCHKPCPPGERKARDCTVNGDEPDCVPCQEGKEYTDKAHFSSKCRRCRLCDEGHGLEVEINCTRTQNTKCRCKPNFFCNSTVCEHCDPCTKCEHGIIKECTLTSNTKCKEEGSRSNLGWLCLLLLPIPLIVWVKRKEVQKTCRKHRKENQGSHESPTLNPETVAINLSDVDLSKYITTIAGVMTLSQVKGFVRKNGVNEAKIDEIKNDNVQDTAEQKVQLLRNWHQLHGKKEAYDTLIKDLKKANLCTLAEKIQTIILKDITSDSENSNFRNEIQSLV
# B2: FAS-associated death domain protein (Homo sapiens), Q13158 (parent)
# chain: MDPFLVLLHSVSSSLSSSELTELKFLCLGRVGKRKLERVQSGLDLFSMLLEQNDLEPGHTELLRELLASLRRHDLLRRVDDFEAGAAAGAAPGEEDLCAAFNVICDNVGKDWRRLARQLKVSDTKIDSIEDRYPRNLTERVRESLRIWKNTEKENATVAHLVGALRSCQMNLVADLVQEVQQARDLQNRSGAMSPMSWNSDASTSEAS
# Variants of: B1
# Details: with fadd_human FADD
row,Variant,effect of a mutation on the interaction
1,MLGIWTLLPLVLTSVARLSSKSVNAQVTDINSKGLELRKTVTTVETQNLEGLHHDGQFCHKPCPPGERKARDCTVNGDEPDCVPCQEGKEYTDKAHFSSKCRRCRLCDEGHGLEVEINCTRTQNTKCRCKPNFFCNSTVCEHCDPCTKCEHGIIKECTLTSNTKCKEEGSRSNLGWLCLLLLPIPLIVWVKRKEVQKTCRKHRKENQGSHESPTLNPETVAINLSDVDLSKYITTIAGVMTLSQVKGFVEKNGVNEAKIDEIKNDNVQDTAEQKVQLLRNWHQLHGKKEAYDTLIKDLKKANLCTLAEKIQTIILKDITSDSENSNFRNEIQSLV [R250E],disrupting interaction strength
2,MLGIWTLLPLVLTSVARLSSKSVNAQVTDINSKGLELRKTVTTVETQNLEGLHHDGQFCHKPCPPGERKARDCTVNGDEPDCVPCQEGKEYTDKAHFSSKCRRCRLCDEGHGLEVEINCTRTQNTKCRCKPNFFCNSTVCEHCDPCTKCEHGIIKECTLTSNTKCKEEGSRSNLGWLCLLLLPIPLIVWVKRKEVQKTCRKHRKENQGSHESPTLNPETVAINLSDVDLSKYITTIAGVMTLSQVKGFVQKNGVNEAKIDEIKNDNVQDTAEQKVQLLRNWHQLHGKKEAYDTLIKDLKKANLCTLAEKIQTIILKDITSDSENSNFRNEIQSLV [R250Q],decreasing interaction strength
3,MLGIWTLLPLVLTSVARLSSKSVNAQVTDINSKGLELRKTVTTVETQNLEGLHHDGQFCHKPCPPGERKARDCTVNGDEPDCVPCQEGKEYTDKAHFSSKCRRCRLCDEGHGLEVEINCTRTQNTKCRCKPNFFCNSTVCEHCDPCTKCEHGIIKECTLTSNTKCKEEGSRSNLGWLCLLLLPIPLIVWVKRKEVQKTCRKHRKENQGSHESPTLNPETVAINLSDVDLSKYITTIAGVMTLSQVKGFVRKNGVNEDKIDEIKNDNVQDTAEQKVQLLRNWHQLHGKKEAYDTLIKDLKKANLCTLAEKIQTIILKDITSDSENSNFRNEIQSLV [A257D],disrupting interaction
4,MLGIWTLLPLVLTSVARLSSKSVNAQVTDINSKGLELRKTVTTVETQNLEGLHHDGQFCHKPCPPGERKARDCTVNGDEPDCVPCQEGKEYTDKAHFSSKCRRCRLCDEGHGLEVEINCTRTQNTKCRCKPNFFCNSTVCEHCDPCTKCEHGIIKECTLTSNTKCKEEGSRSNLGWLCLLLLPIPLIVWVKRKEVQKTCRKHRKENQGSHESPTLNPETVAINLSDVDLSKYITTIAGVMTLSQVKGFVRKNGVNEAKIYEIKNDNVQDTAEQKVQLLRNWHQLHGKKEAYDTLIKDLKKANLCTLAEKIQTIILKDITSDSENSNFRNEIQSLV [D260Y],disrupting interaction
5,MLGIWTLLPLVLTSVARLSSKSVNAQVTDINSKGLELRKTVTTVETQNLEGLHHDGQFCHKPCPPGERKARDCTVNGDEPDCVPCQEGKEYTDKAHFSSKCRRCRLCDEGHGLEVEINCTRTQNTKCRCKPNFFCNSTVCEHCDPCTKCEHGIIKECTLTSNTKCKEEGSRSNLGWLCLLLLPIPLIVWVKRKEVQKTCRKHRKENQGSHESPTLNPETVAINLSDVDLSKYITTIAGVMTLSQVKGFVRKNGVNEAKIDKIKNDNVQDTAEQKVQLLRNWHQLHGKKEAYDTLIKDLKKANLCTLAEKIQTIILKDITSDSENSNFRNEIQSLV [E261K],disrupting interaction
6,MLGIWTLLPLVLTSVARLSSKSVNAQVTDINSKGLELRKTVTTVETQNLEGLHHDGQFCHKPCPPGERKARDCTVNGDEPDCVPCQEGKEYTDKAHFSSKCRRCRLCDEGHGLEVEINCTRTQNTKCRCKPNFFCNSTVCEHCDPCTKCEHGIIKECTLTSNTKCKEEGSRSNLGWLCLLLLPIPLIVWVKRKEVQKTCRKHRKENQGSHESPTLNPETVAINLSDVDLSKYITTIAGVMTLSQVKGFVRKNGVNEAKIDEIKNDNVQDKAEQKVQLLRNWHQLHGKKEAYDTLIKDLKKANLCTLAEKIQTIILKDITSDSENSNFRNEIQSLV [T270K],disrupting interaction
7,MLGIWTLLPLVLTSVARLSSKSVNAQVTDINSKGLELRKTVTTVETQNLEGLHHDGQFCHKPCPPGERKARDCTVNGDEPDCVPCQEGKEYTDKAHFSSKCRRCRLCDEGHGLEVEINCTRTQNTKCRCKPNFFCNSTVCEHCDPCTKCEHGIIKECTLTSNTKCKEEGSRSNLGWLCLLLLPIPLIVWVKRKEVQKTCRKHRKENQGSHESPTLNPETVAINLSDVDLSKYITTIAGVMTLSQVKGFVRKNGVNEAKIDEIKNDNVQDTAKQKVQLLRNWHQLHGKKEAYDTLIKDLKKANLCTLAEKIQTIILKDITSDSENSNFRNEIQSLV [E272K],disrupting interaction
8,MLGIWTLLPLVLTSVARLSSKSVNAQVTDINSKGLELRKTVTTVETQNLEGLHHDGQFCHKPCPPGERKARDCTVNGDEPDCVPCQEGKEYTDKAHFSSKCRRCRLCDEGHGLEVEINCTRTQNTKCRCKPNFFCNSTVCEHCDPCTKCEHGIIKECTLTSNTKCKEEGSRSNLGWLCLLLLPIPLIVWVKRKEVQKTCRKHRKENQGSHESPTLNPETVAINLSDVDLSKYITTIAGVMTLSQVKGFVRKNGVNEAKIDEIKNDNVQDTAEQKVQLLRNWHKLHGKKEAYDTLIKDLKKANLCTLAEKIQTIILKDITSDSENSNFRNEIQSLV [Q283K],disrupting interaction
9,MLGIWTLLPLVLTSVARLSSKSVNAQVTDINSKGLELRKTVTTVETQNLEGLHHDGQFCHKPCPPGERKARDCTVNGDEPDCVPCQEGKEYTDKAHFSSKCRRCRLCDEGHGLEVEINCTRTQNTKCRCKPNFFCNSTVCEHCDPCTKCEHGIIKECTLTSNTKCKEEGSRSNLGWLCLLLLPIPLIVWVKRKEVQKTCRKHRKENQGSHESPTLNPETVAINLSDVDLSKYITTIAGVMTLSQVKGFVRKNGVNEAKIDEIKNDNVQDTAEQKVQLLRNWHQLHGDKEAYDTLIKDLKKANLCTLAEKIQTIILKDITSDSENSNFRNEIQSLV [K287D],disrupting interaction

# Variants of: B1
# Details: with fadd_human FADD
# Remark: another data set of the same source
row,Variant,effect of a mutation on the interaction
1,MLGIWTLLPLVLTSVARLSSKSVNAQVTDINSKGLELRKTVTTVETQNLEGLHHDGQFCHKPCPPGERKARDCTVNGDEPDCVPCQEGKEYTDKAHFSSKCRRCRLCDEGHGLEVEINCTRTQNTKCRCKPNFFCNSTVCEHCDPCTKCEHGIIKECTLTSNTKCKEEGSRSNLGWLCLLLLPIPLIVWVKRKEVQKTCRKHRKENQGSHESPTLNPETVAINLSDVDLSKYITTIAGVMTLSQVKGFVEKNGVNEAKIDEIKNDNVQDTAEQKVQLLRNWHQLHGKKEAYDTLIKDLKKANLCTLAEKIQTIILKDITSDSENSNFRNEIQSLV [R250E],decreasing interaction
2,MLGIWTLLPLVLTSVARLSSKSVNAQVTDINSKGLELRKTVTTVETQNLEGLHHDGQFCHKPCPPGERKARDCTVNGDEPDCVPCQEGKEYTDKAHFSSKCRRCRLCDEGHGLEVEINCTRTQNTKCRCKPNFFCNSTVCEHCDPCTKCEHGIIKECTLTSNTKCKEEGSRSNLGWLCLLLLPIPLIVWVKRKEVQKTCRKHRKENQGSHESPTLNPETVAINLSDVDLSKYITTIAGVMTLSQVKGFVRKNGVNEAKIYEIKNDNVQDTAEQKVQLLRNWHQLHGKKEAYDTLIKDLKKANLCTLAEKIQTIILKDITSDSENSNFRNEIQSLV [D260Y],disrupting interaction strength
3,MLGIWTLLPLVLTSVARLSSKSVNAQVTDINSKGLELRKTVTTVETQNLEGLHHDGQFCHKPCPPGERKARDCTVNGDEPDCVPCQEGKEYTDKAHFSSKCRRCRLCDEGHGLEVEINCTRTQNTKCRCKPNFFCNSTVCEHCDPCTKCEHGIIKECTLTSNTKCKEEGSRSNLGWLCLLLLPIPLIVWVKRKEVQKTCRKHRKENQGSHESPTLNPETVAINLSDVDLSKYITTIAGVMTLSQVKGFVRKNGVNEAKIVEIKNDNVQDTAEQKVQLLRNWHQLHGKKEAYDTLIKDLKKANLCTLAEKIQTIILKDITSDSENSNFRNEIQSLV [D260V],disrupting interaction strength

# Variants of: B2
# Details: with FAS
row,Variant,effect of a mutation on the interaction
1,MDPFLVLLHSVSSSLSSSELTELKFLCLGRVGKRKLERVQSGLDLFSMLLEQNDLEPGHTELLRELLASLRRHDLLRRVDDFEAGAAAGAAPGEEDLCAAFNVICDNVGKDWRRLAEQLKVSDTKIDSIEDRYPRNLTERVRESLRIWKNTEKENATVAHLVGALRSCQMNLVADLVQEVQQARDLQNRSGAMSPMSWNSDASTSEAS [R117E],disrupting interaction
2,MDPFLVLLHSVSSSLSSSELTELKFLCLGRVGKRKLERVQSGLDLFSMLLEQNDLEPGHTELLRELLASLRRHDLLRRVDDFEAGAAAGAAPGEEDLCAAFNVICDNVGKDWRRLARQLKVSRTKIDSIEDRYPRNLTERVRESLRIWKNTEKENATVAHLVGALRSCQMNLVADLVQEVQQARDLQNRSGAMSPMSWNSDASTSEAS [D123R],disrupting interaction
3,MDPFLVLLHSVSSSLSSSELTELKFLCLGRVGKRKLERVQSGLDLFSMLLEQNDLEPGHTELLRELLASLRRHDLLRRVDDFEAGAAAGAAPGEEDLCAAFNVICDNVGKDWRRLARQLKVSDTKIDSIEDRYPENLTERVRESLRIWKNTEKENATVAHLVGALRSCQMNLVADLVQEVQQARDLQNRSGAMSPMSWNSDASTSEAS [R135E],disrupting interaction
4,MDPFLVLLHSVSSSLSSSELTELKFLCLGRVGKRKLERVQSGLDLFSMLLEQNDLEPGHTELLRELLASLRRHDLLRRVDDFEAGAAAGAAPGEEDLCAAFNVICDNVGKDWRRLARQLKVSDTKIDSIEDRYPRNLTERVEESLRIWKNTEKENATVAHLVGALRSCQMNLVADLVQEVQQARDLQNRSGAMSPMSWNSDASTSEAS [R142E],disrupting interaction

# Variants of: B2
# Details: with FAS
# Remark: another data set of the same source
row,Variant,effect of a mutation on the interaction
1,MDPFLVLLHSVSSSLSSSELTELKFLCLGRVGKRKLERVQSGLDLFSMLLEQNDLEPGHTELLRELLASLRRHDLLRRVDDFEAGAAAGAAPGEEDLCAAFNVICDNVGKDWRRLARQLKVSRTKIDSIEDRYPRNLTERVRESLRIWKNTEKENATVAHLVGALRSCQMNLVADLVQEVQQARDLQNRSGAMSPMSWNSDASTSEAS [D123R],decreasing interaction
2,MDPFLVLLHSVSSSLSSSELTELKFLCLGRVGKRKLERVQSGLDLFSMLLEQNDLEPGHTELLRELLASLRRHDLLRRVDDFEAGAAAGAAPGEEDLCAAFNVICDNVGKDWRRLARQLKVSDTKIDSIEDRYPENLTERVRESLRIWKNTEKENATVAHLVGALRSCQMNLVADLVQEVQQARDLQNRSGAMSPMSWNSDASTSEAS [R135E],decreasing interaction
3,MDPFLVLLHSVSSSLSSSELTELKFLCLGRVGKRKLERVQSGLDLFSMLLEQNDLEPGHTELLRELLASLRRHDLLRRVDDFEAGAAAGAAPGEEDLCAAFNVICDNVGKDWRRLARQLKVSDTKIDSIEDRYPRNLTERVEESLRIWKNTEKENATVAHLVGALRSCQMNLVADLVQEVQQARDLQNRSGAMSPMSWNSDASTSEAS [R142E],decreasing interaction
